Molecular target: the molecule itself
Assay: crystal structure

B1: Water soluble chlorophyll binding protein from cauliflower (CaWSCP), recombinant, assembled with Chl a (natural protein)
chain: REQVKDSNGNPVKRGAKYFIQPAKSNGGGLVPAAINILPFCPLGITQTLLPYQPGLPVSFGYEPVIVGTDYIYTSTTINIEFRSEIWPVCNELSKLWAVDVSSSAAKEPAIIIGGERTAPNSLFKIEEATGAHTYKLTTSSGTVGTIPGPWLGAPQLIATNDDAKTLFVKFVKVDDDAT
- stoichiometry N: 4

— publication PMC6690836 (Angewandte Chemie (International ed. in English), 2016)
